According to publication PMC4236683 (2014):

Assays:
PlexinA2 = target: T1, PlexinA2 (Mus musculus, UniProt P70207); test: saturation binding
T1 chain: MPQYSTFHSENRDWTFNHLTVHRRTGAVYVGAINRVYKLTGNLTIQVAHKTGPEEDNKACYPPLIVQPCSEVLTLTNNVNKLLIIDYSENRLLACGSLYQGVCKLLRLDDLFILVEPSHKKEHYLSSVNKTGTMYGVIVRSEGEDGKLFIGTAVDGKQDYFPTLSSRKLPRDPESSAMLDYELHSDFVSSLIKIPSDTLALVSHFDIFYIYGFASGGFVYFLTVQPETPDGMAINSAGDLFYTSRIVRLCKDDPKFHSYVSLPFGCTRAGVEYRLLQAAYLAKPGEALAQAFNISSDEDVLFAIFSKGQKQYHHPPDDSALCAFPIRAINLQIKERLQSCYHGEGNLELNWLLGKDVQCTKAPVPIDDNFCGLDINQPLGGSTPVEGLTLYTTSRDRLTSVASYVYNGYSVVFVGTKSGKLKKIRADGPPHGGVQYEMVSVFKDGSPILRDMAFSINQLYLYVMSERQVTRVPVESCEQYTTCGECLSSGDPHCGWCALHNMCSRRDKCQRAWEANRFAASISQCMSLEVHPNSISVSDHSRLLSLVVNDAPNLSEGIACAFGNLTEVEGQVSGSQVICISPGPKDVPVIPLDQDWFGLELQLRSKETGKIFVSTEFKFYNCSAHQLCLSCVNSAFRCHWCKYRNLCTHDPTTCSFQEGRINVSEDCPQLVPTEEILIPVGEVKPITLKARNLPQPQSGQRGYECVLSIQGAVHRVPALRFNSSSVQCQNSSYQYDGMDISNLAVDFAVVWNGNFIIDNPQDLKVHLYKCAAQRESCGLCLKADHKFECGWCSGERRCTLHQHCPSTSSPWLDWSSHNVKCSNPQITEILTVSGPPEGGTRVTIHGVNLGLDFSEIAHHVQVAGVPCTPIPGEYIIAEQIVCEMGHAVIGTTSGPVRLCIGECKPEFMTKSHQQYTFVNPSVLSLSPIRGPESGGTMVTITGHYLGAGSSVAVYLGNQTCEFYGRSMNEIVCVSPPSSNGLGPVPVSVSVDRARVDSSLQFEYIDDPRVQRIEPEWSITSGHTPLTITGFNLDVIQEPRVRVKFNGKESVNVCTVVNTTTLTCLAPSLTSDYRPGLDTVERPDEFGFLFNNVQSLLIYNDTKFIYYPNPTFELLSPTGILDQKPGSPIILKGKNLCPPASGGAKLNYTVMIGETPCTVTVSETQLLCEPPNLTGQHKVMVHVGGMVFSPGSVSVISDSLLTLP

PlexinA1 = PlexinA1 (Mus musculus, UniProt P70206); test: saturation binding
PlexinA1, sequence (P70206 28-1242): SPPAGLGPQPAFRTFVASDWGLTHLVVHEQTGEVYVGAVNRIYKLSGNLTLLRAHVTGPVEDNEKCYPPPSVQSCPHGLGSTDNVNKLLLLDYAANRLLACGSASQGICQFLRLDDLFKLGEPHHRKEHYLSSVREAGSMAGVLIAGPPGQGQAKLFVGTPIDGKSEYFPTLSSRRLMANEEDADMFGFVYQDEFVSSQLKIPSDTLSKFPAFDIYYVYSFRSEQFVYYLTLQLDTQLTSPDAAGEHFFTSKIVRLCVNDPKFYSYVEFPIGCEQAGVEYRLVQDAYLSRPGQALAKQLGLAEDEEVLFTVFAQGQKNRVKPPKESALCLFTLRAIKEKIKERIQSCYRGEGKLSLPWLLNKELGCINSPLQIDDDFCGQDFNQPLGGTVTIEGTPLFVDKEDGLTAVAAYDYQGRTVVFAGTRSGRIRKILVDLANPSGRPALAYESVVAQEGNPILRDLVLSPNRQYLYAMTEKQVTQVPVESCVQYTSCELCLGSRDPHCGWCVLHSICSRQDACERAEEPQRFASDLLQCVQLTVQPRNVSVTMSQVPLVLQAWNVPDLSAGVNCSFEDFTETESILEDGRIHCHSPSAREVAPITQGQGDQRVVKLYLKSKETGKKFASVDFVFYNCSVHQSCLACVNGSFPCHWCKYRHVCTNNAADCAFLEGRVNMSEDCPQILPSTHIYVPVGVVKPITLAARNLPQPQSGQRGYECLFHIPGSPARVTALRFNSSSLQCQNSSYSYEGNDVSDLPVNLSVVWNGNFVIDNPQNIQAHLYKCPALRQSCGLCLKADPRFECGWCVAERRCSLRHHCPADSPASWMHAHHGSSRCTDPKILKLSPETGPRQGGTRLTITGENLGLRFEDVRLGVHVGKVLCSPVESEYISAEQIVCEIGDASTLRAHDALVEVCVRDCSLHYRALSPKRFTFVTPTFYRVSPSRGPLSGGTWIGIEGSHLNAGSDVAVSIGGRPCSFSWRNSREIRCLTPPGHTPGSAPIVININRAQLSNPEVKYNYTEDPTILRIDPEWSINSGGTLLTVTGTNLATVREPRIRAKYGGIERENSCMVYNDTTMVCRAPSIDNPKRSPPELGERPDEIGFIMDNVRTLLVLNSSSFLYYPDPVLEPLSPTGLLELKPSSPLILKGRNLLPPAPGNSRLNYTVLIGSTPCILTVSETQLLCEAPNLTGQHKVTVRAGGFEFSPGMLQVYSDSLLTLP

Kd (PlexinA2): ~11.5 nM | Kd (PlexinA1): ~11.5 nM
B1: Sema5A-Fc (protein)
chain: PETQDPAKCQRAEHPVVSYKEIGPWLREFRAENAVDFSRLTFDPGQKELVVGARNYLFRLELEDLSLIQAVEWECDEATKKACYSKGKSKEECQNYIRVLLVGGDRLFTCGTNAFTPVCTIRSLSNLTEIHDQISGMARCPYSPQHNSTALLTASGELYAATAMDFPGRDPAIYRSLGTLPPLRTAQYNSKWLNEPNFVSSYDIGNFTYFFFRENAVEHDCGKTVFSRPARVCKNDIGGRFLLEDTWTTFMKARLNCSRPGEVPFYYNELQGTFFLPELDLIYGIFTTNVNSIASSAVCVFNLSAISQAFNGPFKYQENSRSAWLPYPNPNPNFQCGTMDQGLYVNLTERNLQDAQKFILMHEVVQPVTTVPSFMEDNSRFSHLAVDVVQGRETLVHIIYLGTDYGTIKKVRAPLSQSSGSCLLEEIELFPERRSEPIRSLQILHSQSVLFVGLQEHVAKIPLKRCHFHQTRSACIGAQDPYCGWDAVMKKCTSLEESLSMTQWDQSIPTCPTRNLTVDGSFGPWSPWTPCTHTDGTAVGSCLCRSRSCDRPAPQCGGWQCEGPRMEITNCSRNGGWTPWTSWSPCSTTCGIGFQVRQRSCSNPTPRHGGRVCVGQNREERYCNEHLLCPPHVFWTGWGPWERCTAQCGGGIQARRRTCENGPDCAGSNVEYHPCNTNACPELKKTTPWTPWTPVNISDNGGHYEQRFRYTCKARLPDPNLLEVGRQRIEMRYCSSDGTSGCSTDGLSGDFLRAGRYSAHTVNGAWSAWTSWSQCSRDCSRGIRNRKRVCNNPEPKFGGMPCLGPSLEFQECNILPCPVDGVWSCWSSWSKCSATCGGGHYMRTRSCSNPAPAYGGDICLGLHTEEALCNTQTCPESWSEWSDWSVCDASGTQVRARQCILLFPVGSQCSGNTTESRPCVFDSNFIPEVSVARSSSVEEKRCGEFNMFHM
